Tests used:
[1] = tested on: luciferase-transfected Daudi cells; test: Annexin-V apoptosis assay; assay type: cell-based; conditions: 5 μg/ml
Method: Apoptosis assay was carried out according to the manufacturer's instructions (Annexin-V Apoptosis kit, BD Biosciences, Alphen a.d. Rijn, Netherlands). In short, CD38 mAbs were added to 2.5×10^5 cells (luciferase-transfected Daudi cells, in 0.5 ml RPMI^++ in a 24-wells plate), in a concentration of 5 μg/ml -003 or -005 or an anti-CD20 antibodies alone or in the presence of cross-blocking rb-anti-hIgG (50 μg/ml).
After incubation (37° C., 5% CO2, 20 hr), cells were harvested carefully, and washed with Binding Buffer (1200 rpm, 4° C., 5 min, BD Biosciences). Pellet was resuspended in 100 μl Binding Buffer. Then, 5 μl Annexin-V-FITC (BD Biosciences) and 10 μl PI (BD Biosciences) was added to the suspension and incubated for 15 minutes at RT. 400 μl Binding Buffer was added and the samples were measured (PI readout in FL2). For analysis of apoptotic cells, all Annexin-V-positive cells were counted by flow cytometry using a FACScalibur flow cytometer with CellQuest pro software (BD Biosciences). At least 10,000 events were collected for analysis. This population includes both PI-positive as well as PI-negative cells.

HA-tagged CD38 = molecular target: T1, HA-tagged CD38 (Homo sapiens, UniProt P28907); test: Surface plasmon resonance (Biacore 3000); assay type: binding; conditions: 25° C., mean of 3 experiments±SD
T1 construct: The extracellular domain of human CD38 was amplified from plasmid pCIpuroCD38; made in house
Method: Binding of -003 and -005 to CD38 was tested using surface plasmon resonance. Briefly, purified antibodies were immobilized on a CM-5 sensor chip (Biacore, Uppsala, Sweden) via anime coupling. HA-tagged CD38 (see Example 3) was flowed over, and the binding of antigen to mAb was detected by a change in refractive index at the surface of the chip using a Biacore 3000 (Biacore).

wt human CD38 = molecular target: T2, wt human CD38 (Homo sapiens, UniProt P28907); test: ELISA binding to wild type HA-CD38
T2 construct: The extracellular domain of human CD38 was amplified from plasmid pCIpuroCD38; signal peptide SPHMM (N); made in house; host or cells: Freestyle 293-F (HEK-293F), transient; culture supernatant used
Method: Freestyle™ 293-F (a HEK-293 subclone adapted to suspension growth and chemically defined Freestyle medium, (HEK-293F)) cells were obtained from Invitrogen and transfected with pEE13.4HACD38 and with the three constructs carrying the mutations T237A, Q272R and S274F, according to the manufacturer's protocol using 293fectin (Invitrogen). Culture supernatants of transfected cells were used in ELISA for anti-CD38 binding studies.
Culture supernatants of transfected HEK293F cells were diluted, applied to the ELISA plates and incubated for 1 hr at RT. After washing, serial dilutions of HuMabs -003 and -005 were added and incubated for 1 hr at RT. Bound antibodies were detected with HRP-conjugated goat-anti-human IgG antibodies. The assay was developed with ABTS (Roche, #1112597) and the absorbance was measured at 405 nm using a spectrophotometer.

[2] = molecular target: T3, CHO cells transfected with human CD38 (CHO-CD38 cells) (Homo sapiens, UniProt P28907); test: Enzymatic activity of cellular expressed CD38 (cGDPR production); assay type: cell-based; conditions: after 156 minutes; for cGDPribose production: CHO-CD38 cells
T3 construct: expressed in transfected cells; host or cells: CHO cells
Method: The enzymatic activity of cellular expressed human CD38 was measured in an assay essentially as described in Graeff et al., J. Biol. Chem. 269, 30260-30267 (1994). Briefly, substrate NGD (80 μM) was incubated with […] CHO cells transfected with human CD38 (CHO-CD38 cells) in a buffer containing 20 mM Tris-HCl, pH 7.0 supplemented with 30 μg/ml IgG1. The production of cGDPR can be monitored spectrophotometrically at the emission wavelength of 410 nm (excitation at 300 nm). In this example an excitation filter of 340±60 nm and an emission filter of 430±8 nm was used. To test the effect of -005 and -003 on the enzymatic activity of cellular expressed CD38, CHO-CD38 cells were pre-incubated for 15′ at room temp. with various concentrations (30, 3, 0.3 and 0.03 μg/ml) of the different antibodies before adding the substrate NGD. The production of cGDPR was recorded at different time points after addition of substrate NGD (3, 6, 9, 12, 30, 45, 60, 112 and 156 min).

-005: human monoclonal IgG1 anti-CD38 antibody, VL region SEQ ID No:12 and VH region SEQ ID No:17
induction of apoptosis ([1]; after cross-linking with rb-anti-hIgG (50 μg/ml)): less able to induce apoptosis | induction of apoptosis ([1]; without cross-linking): do not induce apoptosis | KA (HA-tagged CD38): 1.7e+08 ± 3.68e+07 M⁻¹ | Kd (HA-tagged CD38): 6.06 nM | ka (HA-tagged CD38): 88800 ± 19500 M⁻¹ s⁻¹ | kd (HA-tagged CD38): 0.000522 ± 1.16e-05 s⁻¹ | binding to wt human CD38 (wt human CD38): bind | cGDPribose production ([2]; 0.03 μg/ml antibody): 104 % of NGD control | cGDPribose production ([2]; 0.3 μg/ml antibody): 100 % of NGD control | cGDPribose production ([2]; 3 μg/ml antibody): 82 % of NGD control | reduced production of cGDPR ([2]; 3 μg/ml): 18% | cGDPribose production ([2]; 30 μg/ml antibody): 79 % of NGD control | reduced production of cGDPR ([2]; 30 μg/ml): 21%

— patent US20240165226A1, “COMBINATION TREATMENT OF CD38-EXPRESSING TUMORS” (GENMAB A/S, priority 2006, published 2024)
